{"source": "paper PMC4749974", "about": "“New insights into the mechanism of substrates trafficking in Glyoxylate/Hydroxypyruvate reductases” (Scientific Reports, 2016)", "molecules": {"B1": {"name": "PfuGRHPR (Pyrococcus furiosus DSM 3638) (protein)", "chain": "MKPKVFITRAIPENGINMLEEEFEVEVWEEEREIPREKLLEKVKDVDALVTMLSERIDQEVFENAPRLRIVANYAVGYDNIDVEEATRRGIYVTNTPDVLTNATADHAFALLLATARHVVKGDKFVRSGEWKRKGIAWHPKWFLGYELYGKTIGIVGFGRIGQAIARRAKGFNMRILYYSRTRKSQAEKELGAEYRPLEEVLKESDFVILAVPLTKETMYMINEERLKLMKPTAILVNIARGKVVDTKALIKALKEGWIAGAGLDVFEEEPYYNEELFSLDNVVLTPHIGSATFEAREAMAELVARNLIAFKRGEIPPTLVNKEVIKIRKPGFNEQ", "notes": "synthetic codon-optimised gene in pET41c, E. coli BL21(DE3)-RIL; no tag mentioned; heat step 85 °C, Resource Q, Superose 12; 66 kDa homodimer"}, "B2": {"name": "PhoGRHPR (Pyrococcus horikoshii OT3) (protein)", "chain": "MKPKVFITREIPEVGIKMLEDEFEVEVWGDEKEIPREILLKKVKEVDALVTMLSERIDKEVFENAPKLRIVANYAVGYDNIDIEEATKRGIYVTNTPDVLTDATADLAFALLLATARHVVKGDRFVRSGEWKKRGVAWHPKWFLGYDVYGKTIGIIGLGRIGQAIAKRAKGFNMRILYYSRTRKEEVERELNAEFKPLEDLLRESDFVVLAVPLTRETYHLINEERLKLMKKTAILINIARGKVVDTNALVKALKEGWIAGAGLDVFEEEPYYNEELFKLDNVVLTPHIGSASFGAREGMAELVAKNLIAFKRGEIPPTLVNREVIKIRKPGFE", "notes": "as for B1"}, "B3": {"name": "PyaGRHPR (Pyrococcus yayanosii CH1) (protein)", "chain": "MKPKVLITRAIPENGIELLREHFEVEVWEHEHEIPREVLLEKVKDVDALVTMLSEKIDREVFDAAPRLRIVANYAVGYDNIDIEEATKRGIYVTNTPDVLTDATADLAWALLLAAARHVVKGDKFVRSGEWKRRGIAWHPKMFLGYDVYGKTIGIVGFGRIGQAIAKRAKGFGMRILYTARSRKPEAEKELGAEFKPLEELLRESDFVVLAVPLTKETYHMINEERLRLMKPTAVLVNVARGKVVDTKALIRALKEGWIAAAGLDVFEEEPYYDEELFALDNVVLTPHIGSATFGAREGMAELVAKNLIAFKNGEVPPTLVNREVLKVRRPGF", "notes": "as for B1"}}, "key": {"[1]": {"biological_target": "T1, PfuGRHPR (Pyrococcus furiosus, UniProt Q8U3Y2)", "T1 construct": "gene gyaR; synthetic codon-optimised gene in pET41c, E. coli BL21(DE3)-RIL; no tag mentioned; heat step 85 °C, Resource Q, Superose 12; 66 kDa homodimer", "T1 sequence (Q8U3Y2 1-336)": "B1 chain", "test": "crystal structure […] Å", "assay_type": "binding"}, "[2]": {"biological_target": "T2, PyaGRHPR (Pyrococcus yayanosii, UniProt F8AEA4)", "T2 construct": "gene gyaR; synthetic codon-optimised gene in pET41c, E. coli BL21(DE3)-RIL; no tag mentioned; heat step 85 °C, Resource Q, Superose 12; 66 kDa homodimer", "T2 sequence (F8AEA4 1-333)": "B3 chain", "test": "crystal structure […] Å", "assay_type": "binding", "conditions": "copurified"}, "[3]": {"biological_target": "T3, PhoGRHPR (Pyrococcus horikoshii, UniProt O58320)", "T3 construct": "gene gyaR; synthetic codon-optimised gene in pET41c, E. coli BL21(DE3)-RIL; no tag mentioned; heat step 85 °C, Resource Q, Superose 12; 66 kDa homodimer", "T3 sequence (O58320 1-334)": "B2 chain", "test": "NAD(P)H absorbance at […] nm, substrate inhibition fit", "assay_type": "biochemical", "conditions": "NADH 0.5 mM, Tris-HCl 100 mM pH 8.0, 50 °C"}, "[4]": {"biological_target": "T2, PyaGRHPR", "test": "NAD(P)H absorbance at […] nm, substrate inhibition fit", "assay_type": "biochemical", "conditions": "NADH 0.5 mM, Tris-HCl 100 mM pH 8.0, 50 °C"}, "[5]": {"biological_target": "T1, PfuGRHPR", "test": "NAD(P)H absorbance at […] nm, substrate inhibition fit", "assay_type": "biochemical", "conditions": "NADH 0.5 mM, Tris-HCl 100 mM pH 8.0, 50 °C"}, "[6]": {"biological_target": "T2, PyaGRHPR", "test": "NAD(P)H absorbance at […] nm", "assay_type": "biochemical", "conditions": "co-substrate hydroxypyruvate or glyoxylate, Tris-HCl 100 mM pH 8.0, 50 °C"}, "[7]": {"biological_target": "T1, PfuGRHPR", "test": "NAD(P)H absorbance at […] nm", "assay_type": "biochemical", "conditions": "co-substrate hydroxypyruvate or glyoxylate, Tris-HCl 100 mM pH 8.0, 50 °C"}, "[8]": {"substrate": "O=C(O)C(=O)CO", "test": "purified protein", "assay_type": "biochemical, Pyrococcus furiosus", "conditions": "NADH 0.5 mM, Tris-HCl 100 mM pH 8.0, 50 °C"}, "[9]": {"substrate": "O=CC(=O)O", "test": "purified protein", "assay_type": "biochemical, Pyrococcus furiosus", "conditions": "NADH 0.5 mM, Tris-HCl 100 mM pH 8.0, 50 °C"}, "[10]": {"substrate": "O=C(O)C(=O)CO", "test": "purified protein", "assay_type": "biochemical, Pyrococcus horikoshii", "conditions": "NADH 0.5 mM, Tris-HCl 100 mM pH 8.0, 50 °C"}, "[11]": {"substrate": "O=CC(=O)O", "test": "purified protein", "assay_type": "biochemical, Pyrococcus horikoshii", "conditions": "NADH 0.5 mM, Tris-HCl 100 mM pH 8.0, 50 °C"}, "[12]": {"substrate": "O=C(O)C(=O)CO", "test": "purified protein", "assay_type": "biochemical, Pyrococcus yayanosii", "conditions": "NADH 0.5 mM, Tris-HCl 100 mM pH 8.0, 50 °C"}, "[13]": {"substrate": "O=CC(=O)O", "test": "purified protein", "assay_type": "biochemical, Pyrococcus yayanosii", "conditions": "NADH 0.5 mM, Tris-HCl 100 mM pH 8.0, 50 °C"}}}
{"molecule": "O=CC(=O)O", "note": "[glyoxylate]", "values": [{"measurement": "crystal structure 1.40 Å", "setting": "[1]; ternary complex with NADP(H), ligand carried over from E. coli, active site, further molecule in tunnel", "value": "the determination of the PfuGRHPR structure reveals a ternary complex in the presence of glyoxylate"}]}
{"molecule": "O=C(O)[C@H](O)CO", "note": "[D-glycerate]", "values": [{"measurement": "crystal structure 2.0 Å", "setting": "[2]; ternary complex with NADP(H), active site, density did not distinguish D-glycerate from hydroxypyruvate", "value": "The PyaGRHPR structure contains D-glycerate, product of HPR activity"}]}
{"molecule": "O=C(O)C(=O)CO", "note": "[hydroxypyruvate]", "values": [{"measurement": "PhoGRHPR / NADH", "setting": "[3]", "value": "3820 ± 680", "unit": "µM"}, {"measurement": "PyaGRHPR / NADH", "setting": "[4]", "value": "760 ± 200", "unit": "µM"}, {"measurement": "PfuGRHPR / NADH", "setting": "[5]", "value": "350 ± 140", "unit": "µM"}]}
{"molecule": "NC(=O)C1=CN([C@@H]2O[C@H](COP(=O)(O)OP(=O)(O)OC[C@H]3O[C@@H](n4cnc5c(N)ncnc54)[C@H](O)[C@@H]3O)[C@@H](O)[C@H]2O)C=CC1", "note": "[NADH]", "values": [{"measurement": "KM", "setting": "[6]", "value": "Archaeal GRHPR presents higher affinity for NADPH compared to NADH"}, {"measurement": "KM", "setting": "[7]", "value": "Archaeal GRHPR presents higher affinity for NADPH compared to NADH"}]}
{"molecule": "NC(=O)C1=CN([C@@H]2O[C@H](COP(=O)(O)OP(=O)(O)OC[C@H]3O[C@@H](n4cnc5c(N)ncnc54)[C@H](OP(=O)(O)O)[C@@H]3O)[C@@H](O)[C@H]2O)C=CC1", "note": "[NADPH]", "values": [{"measurement": "KM", "setting": "[6]", "value": "Archaeal GRHPR presents higher affinity for NADPH compared to NADH"}, {"measurement": "KM", "setting": "[7]", "value": "Archaeal GRHPR presents higher affinity for NADPH compared to NADH"}, {"measurement": "crystal structure 1.40 Å", "setting": "[1]; ternary complex with glyoxylate, copurified, modelled as NADP(H), oxidation state not resolved", "value": "Both structures include a cofactor molecule, unambiguously modeled as NADP(H)"}, {"measurement": "crystal structure 2.0 Å", "setting": "[2]; ternary complex with D-glycerate, modelled as NADP(H), oxidation state not resolved", "value": "Both structures include a cofactor molecule, unambiguously modeled as NADP(H)"}]}
{"molecule": "B1", "values": [{"measurement": "Km", "setting": "[8]", "value": "140 ± 55", "unit": "µM"}, {"measurement": "kcat", "setting": "[8]", "value": "10 ± 5", "unit": "s⁻¹"}, {"measurement": "kcat/Km", "setting": "[8]", "value": "75000 ± 50000", "unit": "M⁻¹ s⁻¹"}, {"measurement": "Km", "setting": "[9]", "value": "1800 ± 25", "unit": "µM"}, {"measurement": "kcat", "setting": "[9]", "value": "13 ± 0.5", "unit": "s⁻¹"}, {"measurement": "kcat/Km", "setting": "[9]", "value": "7000 ± 500", "unit": "M⁻¹ s⁻¹"}]}
{"molecule": "B2", "values": [{"measurement": "Km", "setting": "[10]", "value": "70 ± 11", "unit": "µM"}, {"measurement": "kcat", "setting": "[10]", "value": "4.5 ± 0.5", "unit": "s⁻¹"}, {"measurement": "kcat/Km", "setting": "[10]", "value": "65000 ± 20000", "unit": "M⁻¹ s⁻¹"}, {"measurement": "Km", "setting": "[11]", "value": "160 ± 25", "unit": "µM"}, {"measurement": "kcat", "setting": "[11]", "value": "4 ± 0.5", "unit": "s⁻¹"}, {"measurement": "kcat/Km", "setting": "[11]", "value": "25000 ± 5000", "unit": "M⁻¹ s⁻¹"}]}
{"molecule": "B3", "values": [{"measurement": "Km", "setting": "[12]", "value": "410 ± 110", "unit": "µM"}, {"measurement": "kcat", "setting": "[12]", "value": "25 ± 5", "unit": "s⁻¹"}, {"measurement": "kcat/Km", "setting": "[12]", "value": "60000 ± 25000", "unit": "M⁻¹ s⁻¹"}, {"measurement": "Km", "setting": "[13]", "value": "1500 ± 140", "unit": "µM"}, {"measurement": "kcat", "setting": "[13]", "value": "4.8 ± 0.2", "unit": "s⁻¹"}, {"measurement": "kcat/Km", "setting": "[13]", "value": "3000 ± 500", "unit": "M⁻¹ s⁻¹"}]}
